Data taken from PMC12827253 (2025).

Columns and labels:
human recombinant RIPK3 [1] = target: T1, human recombinant RIPK3 (human, UniProt Q9Y572 1-518); test: BLI; average
human recombinant RIPK3 [2] = target: T1, human recombinant RIPK3; test: BLI; fit at 3 nM GADD45β
human recombinant RIPK3 [3] = target: T1, human recombinant RIPK3; test: BLI; fit at 6 nM GADD45β
human recombinant RIPK3 [4] = target: T1, human recombinant RIPK3; test: BLI; fit at 12 nM GADD45β
human recombinant RIPK3 [5] = target: T1, human recombinant RIPK3; test: BLI; fit at 25 nM GADD45β
human recombinant RIPK3 [6] = target: T1, human recombinant RIPK3; test: BLI; fit at 50 nM GADD45β
human recombinant RIPK3 [7] = target: T1, human recombinant RIPK3; test: BLI; fit at 100 nM GADD45β

T1 sequence (Q9Y572 whole entry): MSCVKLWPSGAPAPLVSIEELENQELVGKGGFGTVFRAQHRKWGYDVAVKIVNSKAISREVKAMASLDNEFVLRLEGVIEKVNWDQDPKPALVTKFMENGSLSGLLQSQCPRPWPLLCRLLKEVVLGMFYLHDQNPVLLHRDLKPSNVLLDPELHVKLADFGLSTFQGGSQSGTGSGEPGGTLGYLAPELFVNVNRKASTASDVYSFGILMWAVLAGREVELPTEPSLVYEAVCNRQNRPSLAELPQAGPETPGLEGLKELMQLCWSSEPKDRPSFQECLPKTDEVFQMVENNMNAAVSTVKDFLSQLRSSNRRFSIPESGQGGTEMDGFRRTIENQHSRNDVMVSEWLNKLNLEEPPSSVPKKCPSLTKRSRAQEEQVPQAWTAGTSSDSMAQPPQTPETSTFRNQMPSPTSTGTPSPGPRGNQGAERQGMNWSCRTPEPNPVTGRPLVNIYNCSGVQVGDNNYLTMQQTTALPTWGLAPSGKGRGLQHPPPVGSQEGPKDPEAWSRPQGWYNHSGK

koff (human recombinant RIPK3 [1]): 0.000546 s⁻¹
Kd (human recombinant RIPK3 [2]): 0.111 nM
Kd (human recombinant RIPK3 [3]): 0.61 nM
Kd (human recombinant RIPK3 [4]): 1.36 nM
Kd (human recombinant RIPK3 [5]): 1.96 nM
Kd (human recombinant RIPK3 [6]): 2.85 nM
Kd (human recombinant RIPK3 [7]): 3.49 nM
B1: recombinant human GADD45β (natural protein)
chain: MTLEELVACDNAAQKMQTVTAAVEELLVAAQRQDRLTVGVYESAKLMNVDPDSVVLCLLAIDEEEEDDIALQIHFTLIQSFCCDNDINIVRVSGMQRLAQLLGEPAETQGTTEARDLHCLLVTNPHTDAWKSHGLVEVASYCEESRGNNQWVPYISLQER
